Experimental data as given in patent publication US20220119534A1 (DRAGONFLY THERAPEUTICS, published 2022).
Values joined by “and” are separate entries in the source; they are usually repeats but may differ in a detail not shown here. Identical values can stand only once. One block for each binder: values may come before it.

Experiments:
[1] = target: T1, De-sialylated human CLEC12A (human, UniProt Q5QGZ9 65-265, treated with neuraminidase (terminal sialic acids removed)); assay: SPR, two-state fit
T1 construct: Same recombinant antigen as m2 after neuraminidase; also called De-sialylated CLEC12A
T1 sequence: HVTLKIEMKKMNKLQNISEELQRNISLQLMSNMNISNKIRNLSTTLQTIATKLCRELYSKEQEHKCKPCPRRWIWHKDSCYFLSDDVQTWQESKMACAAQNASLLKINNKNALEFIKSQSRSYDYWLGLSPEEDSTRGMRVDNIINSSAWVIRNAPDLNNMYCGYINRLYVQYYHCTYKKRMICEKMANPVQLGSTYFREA
Description: (§1) Briefly, human Fc specific antibodies were covalently immobilized at a density ˜8000-10000 resonance units (RU) on carboxy methyl dextran matrix of a CM5 biosensor chip via amine-coupling chemistry to create an anti-hFc IgG chip. […] Association was monitored for 300 seconds and dissociation was monitored for 600 seconds. Surfaces were regenerated between cycles with three pulses of 10 mM glycine-HCl, pH 1.7 injected for 20 seconds at 100 μl/min. HBS-EP+ (1×) with 0.1 mg/ml BSA was used as running buffer throughout the experiment. Experiments were performed at physiological temperature of 37° C. To obtain kinetic rate constants and overall binding affinity, double-referenced data were fit to a two-state kinetic model using Biacore 8K Insight Evaluation software (Cytiva).

[2] = target: T2, De-glycosylated human CLEC12A (human, UniProt Q5QGZ9 65-265, treated with PNGaseF (N-linked glycans removed)); assay: SPR, two-state fit
T2 construct: Same recombinant antigen as m2 after PNGaseF; also called De-glycosylated CLEC12A
T2 sequence: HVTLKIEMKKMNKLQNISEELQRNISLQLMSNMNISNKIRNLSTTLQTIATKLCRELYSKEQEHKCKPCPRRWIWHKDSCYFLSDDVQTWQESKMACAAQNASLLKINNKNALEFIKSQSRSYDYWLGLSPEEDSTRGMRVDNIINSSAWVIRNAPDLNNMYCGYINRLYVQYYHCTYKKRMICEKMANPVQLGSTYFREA
Description: as §1

[3] = target: T3, Human CLEC12A expressed on cells (Ba/F3-hCLEC12A, PL21, HL60) (human, UniProt Q5QGZ9 1-265); assay: cell-based or functional assay
T3 sequence: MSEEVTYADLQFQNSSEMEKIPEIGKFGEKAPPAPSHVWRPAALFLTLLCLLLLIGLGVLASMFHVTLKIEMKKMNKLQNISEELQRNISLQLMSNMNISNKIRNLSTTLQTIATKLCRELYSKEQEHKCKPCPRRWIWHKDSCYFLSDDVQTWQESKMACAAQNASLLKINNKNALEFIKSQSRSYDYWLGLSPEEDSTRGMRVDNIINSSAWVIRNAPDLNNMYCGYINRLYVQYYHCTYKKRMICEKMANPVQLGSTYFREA

[4] = target: T4, Human CLEC12A-His (recombinant, K244 WT) (human, UniProt Q5QGZ9 65-265); assay: SPR, two-state fit; control sample
T4 construct: Made in house (Dragonfly Tx); also called hCLEC12A; hCLEC12A-His; not shown: His tag
T4 sequence: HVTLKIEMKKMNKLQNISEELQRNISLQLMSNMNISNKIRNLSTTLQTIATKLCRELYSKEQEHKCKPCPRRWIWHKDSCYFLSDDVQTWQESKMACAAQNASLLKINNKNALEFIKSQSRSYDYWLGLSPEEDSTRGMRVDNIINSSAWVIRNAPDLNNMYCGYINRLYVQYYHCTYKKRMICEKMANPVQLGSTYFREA

Human CD16b (FcγRIIIb) = target: T5, Human CD16b (FcγRIIIb) (human, UniProt O75015 17-200, limits assumed, biotinylated); assay: SPR, summary of FcγR affinities (n = 3)
T5 construct: Bought recombinant receptor; also called hFcγRIIIb; CD16b (FcγR3b)
T5 sequence (O75015 17-200 limits assumed): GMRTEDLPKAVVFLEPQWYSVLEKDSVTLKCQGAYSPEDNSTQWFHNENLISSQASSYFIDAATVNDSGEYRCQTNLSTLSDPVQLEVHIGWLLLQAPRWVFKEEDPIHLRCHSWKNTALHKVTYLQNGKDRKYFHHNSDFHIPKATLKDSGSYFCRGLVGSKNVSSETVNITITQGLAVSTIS
Description: (§2) Human and cynomolgus CD64, high and low affinity alleles of CD16a (V158 and F158, respectively), two alleles of CD32a (H131 and R131), CD16b, CD32b and cynomolgus CD16 were captured via biotin on a primed (according to the manufacturers instruction) Biacore chip. […] Due to irreversibility of streptavidin-biotin interaction, the capture step for all receptors except FcγRI (CD64) was performed just once prior to the start of the binding experiment. hCD64 and cyno CD64 capture on the CAP chip surface was performed during each cycle in accordance with the manufacturer's instructions for the Biotin CAPture kit.
Detailed description of each individual receptor binding is presented below.

[5] = target: T4, Human CLEC12A-His (recombinant, K244 WT); assay: SPR, two-state fit (ka1); control sample
Description: as §1

[6] = target: T6, Human CD16a F158 (FcγRIIIa F158) (human, UniProt P08637 17-208, biotinylated); assay: SPR 25C, receptor captured, steady-state fit
T6 construct: Bought recombinant receptor; also called hFcγRIIIa F158
T6 sequence (P08637 17-208 limits assumed): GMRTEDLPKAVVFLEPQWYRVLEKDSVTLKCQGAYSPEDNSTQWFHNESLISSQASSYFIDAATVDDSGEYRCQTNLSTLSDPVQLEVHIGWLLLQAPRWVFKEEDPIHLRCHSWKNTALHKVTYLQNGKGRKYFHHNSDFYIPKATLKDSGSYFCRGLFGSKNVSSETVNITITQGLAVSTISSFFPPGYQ

Human CD64 (FcγRI) = target: T7, Human CD64 (FcγRI) (human, UniProt P12314 16-288, biotinylated); assay: SPR 25C, biotinylated hCD64 captured on CAP chip
T7 construct: Bought recombinant receptor; also called hFcγRI; Human FcγRI
T7 sequence (P12314 16-288 limits assumed): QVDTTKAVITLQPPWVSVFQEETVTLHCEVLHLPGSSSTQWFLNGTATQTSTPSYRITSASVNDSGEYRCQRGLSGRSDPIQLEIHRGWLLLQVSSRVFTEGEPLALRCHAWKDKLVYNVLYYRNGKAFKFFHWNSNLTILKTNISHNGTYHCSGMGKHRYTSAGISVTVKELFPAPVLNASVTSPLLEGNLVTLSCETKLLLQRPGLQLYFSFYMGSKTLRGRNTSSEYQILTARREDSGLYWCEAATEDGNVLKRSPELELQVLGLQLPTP
Description: as §2

[7] = target: T4, Human CLEC12A-His (recombinant, K244 WT); assay: SPR 37C, AB0089 captured on anti-hFc, two-state fit
Description: as §1

[8] = target: T4, Human CLEC12A-His (recombinant, K244 WT); assay: SPR, two-state fit; fully purified protein after low pH hold
Description: as §1

[9] = target: T4, Human CLEC12A-His (recombinant, K244 WT); assay: SPR, two-state fit (kd1); control (fully purified protein study)
Description: as §1

[10] = target: T4, Human CLEC12A-His (recombinant, K244 WT); assay: SPR, two-state fit (ka1); fully purified protein after low pH hold
Description: as §1

Human CLEC12A-His = target: T8, Human CLEC12A-His (human, UniProt Q5QGZ9 65-265); assay: SPR; sample after pH 8.0, 40 C, 2 weeks
T8 construct: Recombinant soluble protein made in house; also called hCLEC12A-His; hCLEC12A; not shown: His tag
T8 sequence: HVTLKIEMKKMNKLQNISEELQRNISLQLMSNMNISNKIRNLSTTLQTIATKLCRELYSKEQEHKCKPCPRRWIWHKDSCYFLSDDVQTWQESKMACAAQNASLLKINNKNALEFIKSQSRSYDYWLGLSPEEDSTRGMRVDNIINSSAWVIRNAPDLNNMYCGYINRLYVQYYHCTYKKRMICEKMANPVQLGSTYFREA

mFc-hNKG2D = target: T9, mFc-hNKG2D (human, UniProt P26718 73-216); assay: SPR; sample after pH 8.0, 40 C, 2 weeks
T9 construct: extracellular domain; Recombinant mFc-tagged NKG2D dimer, made in house; also called human NKG2D; not shown: mouse Fc tag
T9 sequence (looked up): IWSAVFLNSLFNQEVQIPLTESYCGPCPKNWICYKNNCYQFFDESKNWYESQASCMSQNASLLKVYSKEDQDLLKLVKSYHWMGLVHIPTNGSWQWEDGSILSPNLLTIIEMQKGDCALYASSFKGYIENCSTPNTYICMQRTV

Human CD16a V158 = target: T10, Human CD16a V158 (human, UniProt P08637 17-208, biotinylated); assay: SPR; sample after pH 8.0, 40 C, 2 weeks
T10 construct: Bought recombinant receptor; also called hCD16a (V158); hFcγRIIIa V158
T10 sequence (P08637 17-208 F176V limits assumed): as the sequence (P08637 17-208 limits assumed) above, with F160V counted along it

- Kd [1]: 0.35 nM
- Kd [2]: 0.09 nM
- Kd [4]: 0.9 nM
- Kd (Human CD16b (FcγRIIIb)): 8850 nM
- kon [5]: 8.87e+06 M⁻¹ s⁻¹
- Kd [6]: 1250 nM and 1280 nM and 1300 nM
- Kd (Human CD64 (FcγRI)): 6.4 nM and 4.7 nM and 4.1 nM and 5.2 nM
- koff (Human CD64 (FcγRI)): 0.00018 s⁻¹ and 0.00022 s⁻¹ and 0.00019 s⁻¹ and 0.00024 s⁻¹
- kon (Human CD64 (FcγRI)): 44000 M⁻¹ s⁻¹ and 46000 M⁻¹ s⁻¹
- Kd [7]: 0.69 nM and 0.75 nM and 0.78 nM
- Kd [8]: 0.53 nM
- koff [9]: 0.0272 s⁻¹
- kon [10]: 1.02e+07 M⁻¹ s⁻¹
B1: AB0089 TriNKET (bispecific antibody, human IgG1, kappa)
chain: QLQLQESGPGLVKPSETLSLTCTVSGFSLTNYGLHWIRQPPGKCLEWIGVIWVGGATDYNPSLKSRVTISVDTSKNQFSLKLSSVQAADTAVYYCAKGDYGDTLDYWGQGTLVTVSSGGGGSGGGGSGGGGSGGGGSDIQMTQSPSSLSASVGDRVTITCHASQNINFWLSWYQQKPGKAPKLLIYEASNLHTGVPSRFSGSGSGTDFTLTISSLQPEDFATYYCQQSHSYPLTFGCGTKLEIKGSDKTHTCPPCPAPELLGGPSVFLFPPKPKDTLMISRTPEVTCVVVDVSHEDPEVKFNWYVDGVEVHNAKTKPREEQYNSTYRVVSVLTVLHQDWLNGKEYKCKVSNKALPAPIEKTISKAKGQPREPRVYTLPPCRDELTKNQVSLTCLVKGFYPSDIAVEWESNGQPENNYKTTPPVLVSDGSFTLYSKLTVDKSRWQQGNVFSCSVMHEALHNHYTQKSLSLSPG
heavy: EVQLVESGGGLVKPGGSLRLSCAASGFTFSSYSMNWVRQAPGKGLEWVSSISSSSSYIYYADSVKGRFTISRDNAKNSLYLQMNSLRAEDTAVYYCARGAPIGAAAGWFDPWGQGTLVTVSSASTKGPSVFPLAPSSKSTSGGTAALGCLVKDYFPEPVTVSWNSGALTSGVHTFPAVLQSSGLYSLSSVVTVPSSSLGTQTYICNVNHKPSNTKVDKKVEPKSCDKTHTCPPCPAPELLGGPSVFLFPPKPKDTLMISRTPEVTCVVVDVSHEDPEVKFNWYVDGVEVHNAKTKPREEQYNSTYRVVSVLTVLHQDWLNGKEYKCKVSNKALPAPIEKTISKAKGQPREPQVCTLPPSRDELTENQVSLTCLVKGFYPSDIAVEWESNGQPENNYKTTPPVLDSDGSFFLYSWLTVDKSRWQQGNVFSCSVMHEALHNHYTQKSLSLSPG
light: DIQMTQSPSSVSASVGDRVTITCRASQGISSWLAWYQQKPGKAPKLLIYAASSLQSGVPSRFSGSGSGTDFTLTISSLQPEDFATYYCQQGVSFPRTFGGGTKVEIKRTVAAPSVFIFPPSDEQLKSGTASVVCLLNNFYPREAKVQWKVDNALQSGNSQESVTEQDSKDSTYSLSSTLTLSKADYEKHKVYACEVTHQGLSSPVTKSFNRGEC
notes: F3' format heterodimer of three chains; human IgG1 Fc with EW-RVT and Y349C/S354C mutations; also called AB0089 Lot AB0089-002; CLEC12A TriNKET AB0089
- EC50, KHYG1-CD16aV cytotoxicity assay, HL-60 cells; control (AB0089-002) [3]: 0.04 nM
- EC50, KHYG1-CD16aV cytotoxicity assay, HL-60 cells; low pH hold (AB0089-004) [3]: 0.03 nM

- Kd (Human CLEC12A-His): 1.66 nM
- koff (Human CLEC12A-His): 0.00128 s⁻¹
- kon (Human CLEC12A-His): 768000 M⁻¹ s⁻¹
- Kd (mFc-hNKG2D): 779 nM
- koff (mFc-hNKG2D): 0.121 s⁻¹
- kon (mFc-hNKG2D): 156000 M⁻¹ s⁻¹
- Kd (Human CD16a V158): 173 nM
- koff (Human CD16a V158): 0.0191 s⁻¹
- kon (Human CD16a V158): 110000 M⁻¹ s⁻¹
B2: AB0192 TriNKET (other)
chain: EVQLVESGGGVVQPGGSLRLSCAASGFTFNAFGMHWVRQAPGKCLEWVAFISSGSTSIYYANTVKGRFTISRDNSKNTLYLQMNSLRAEDTAVYYCARDGYPTGGAMDYWGQGTSVTVSSGGGGSGGGGSGGGGSGGGGSDIQMTQSPSSLSASVGDRVTITCKASQDIYNYLSWFQQKPGKAPKPLIYRANILVSGVPSRFSGSGSGQDYTFTISSLQPEDIATYYCLQFDAFPFTFGCGTKLEIKGSDKTHTCPPCPAPELLGGPSVFLFPPKPKDTLMISRTPEVTCVVVDVSHEDPEVKFNWYVDGVEVHNAKTKPREEQYNSTYRVVSVLTVLHQDWLNGKEYKCKVSNKALPAPIEKTISKAKGQPREPRVYTLPPCRDELTKNQVSLTCLVKGFYPSDIAVEWESNGQPENNYKTTPPVLVSDGSFTLYSKLTVDKSRWQQGNVFSCSVMHEALHNHYTQKSLSLSPG
heavy: EVQLVESGGGLVKPGGSLRLSCAASGFTFSSYSMNWVRQAPGKGLEWVSSISSSSSYIYYADSVKGRFTISRDNAKNSLYLQMNSLRAEDTAVYYCARGAPIGAAAGWFDPWGQGTLVTVSSASTKGPSVFPLAPSSKSTSGGTAALGCLVKDYFPEPVTVSWNSGALTSGVHTFPAVLQSSGLYSLSSVVTVPSSSLGTQTYICNVNHKPSNTKVDKKVEPKSCDKTHTCPPCPAPELLGGPSVFLFPPKPKDTLMISRTPEVTCVVVDVSHEDPEVKFNWYVDGVEVHNAKTKPREEQYNSTYRVVSVLTVLHQDWLNGKEYKCKVSNKALPAPIEKTISKAKGQPREPQVCTLPPSRDELTENQVSLTCLVKGFYPSDIAVEWESNGQPENNYKTTPPVLDSDGSFFLYSWLTVDKSRWQQGNVFSCSVMHEALHNHYTQKSLSLSPG
light: DIQMTQSPSSVSASVGDRVTITCRASQGISSWLAWYQQKPGKAPKLLIYAASSLQSGVPSRFSGSGSGTDFTLTISSLQPEDFATYYCQQGVSFPRTFGGGTKVEIKRTVAAPSVFIFPPSDEQLKSGTASVVCLLNNFYPREAKVQWKVDNALQSGNSQESVTEQDSKDSTYSLSSTLTLSKADYEKHKVYACEVTHQGLSSPVTKSFNRGEC
notes: the condition stands under assay; also called AB0192 Lot AB0192-005
